Measured values as given in paper PMC9482650, “Quantitative fragmentomics allow affinity mapping of interactomes” (Nature Communications, 2022).
Positions count from the first letter of the chain named.

Experiments:
Experiment in all cases: holdup assay
Design in all cases: key: below the threshold = too weak to quantify, mostly under pKd 3.1 to 4
Conditions in all cases: plain residues with an end cap or a label only (N-terminal biotin on a linker: ado-ado)
[1] = biological target: IL16_4, Q14005
IL16_4, Q14005, sequence (Q14005 1229-1329): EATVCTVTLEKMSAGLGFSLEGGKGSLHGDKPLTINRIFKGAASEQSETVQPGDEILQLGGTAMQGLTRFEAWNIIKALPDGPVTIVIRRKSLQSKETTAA

[2] = biological target: NHERF4_1, Q86UT5-2
NHERF4_1, Q86UT5-2, sequence (Q86UT5 other isoform, or with tags, fused parts or gaps): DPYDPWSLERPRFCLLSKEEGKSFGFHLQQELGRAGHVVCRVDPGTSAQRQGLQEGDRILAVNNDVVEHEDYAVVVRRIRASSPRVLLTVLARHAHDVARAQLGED

[3] = biological target: T1, LNX2_3, Q8N448
T1 sequence (Q8N448 463-564, limits assumed, looked up): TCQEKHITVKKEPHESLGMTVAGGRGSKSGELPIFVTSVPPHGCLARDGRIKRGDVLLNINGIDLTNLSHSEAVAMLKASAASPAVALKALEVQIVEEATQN

[4] = biological target: T2, GRIP1_4, Q9Y3R0
T2 sequence (Q9Y3R0 467-571, limits assumed, looked up): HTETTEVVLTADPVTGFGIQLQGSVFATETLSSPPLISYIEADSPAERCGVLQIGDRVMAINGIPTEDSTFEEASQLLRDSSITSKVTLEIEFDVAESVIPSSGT

[5] = biological target: T3, CARD11, Q9BXL7
T3 sequence (Q9BXL7 662-765, limits assumed, looked up): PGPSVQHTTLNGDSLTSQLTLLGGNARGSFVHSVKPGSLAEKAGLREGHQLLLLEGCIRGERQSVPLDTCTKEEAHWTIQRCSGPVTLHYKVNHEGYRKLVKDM

[6] = biological target: NHERF4_4, Q86UT5
NHERF4_4, Q86UT5, sequence (Q86UT5 464-550): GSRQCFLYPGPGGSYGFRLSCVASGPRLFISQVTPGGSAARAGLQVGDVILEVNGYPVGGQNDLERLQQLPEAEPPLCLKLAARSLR

[7] = biological target: Inadl_8, Q8NI35
Inadl_8, Q8NI35, sequence (Q8NI35 1425-1530): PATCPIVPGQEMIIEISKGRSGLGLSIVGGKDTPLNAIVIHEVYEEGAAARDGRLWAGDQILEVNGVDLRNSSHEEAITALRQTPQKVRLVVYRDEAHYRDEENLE

[8] = biological target: DLG4_2, P78352
DLG4_2, P78352, sequence (P78352 155-259): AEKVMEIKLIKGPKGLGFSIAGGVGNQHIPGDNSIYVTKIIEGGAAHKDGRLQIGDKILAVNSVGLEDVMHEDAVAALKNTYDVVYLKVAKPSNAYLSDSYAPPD

[9] = biological target: GRID2IP_1, A4D2P6
GRID2IP_1, A4D2P6, sequence (A4D2P6 1-87): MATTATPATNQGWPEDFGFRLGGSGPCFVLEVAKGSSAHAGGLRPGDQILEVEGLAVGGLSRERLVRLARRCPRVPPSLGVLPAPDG

[10] = biological target: T4, PDZD2_2, O15018
T4 sequence (O15018 329-429, limits assumed, looked up): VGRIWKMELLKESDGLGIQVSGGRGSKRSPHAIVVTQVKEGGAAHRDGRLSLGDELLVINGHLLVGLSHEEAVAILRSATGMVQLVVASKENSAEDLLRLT

[11] = biological target: LNX1_3, Q8TBB1
LNX1_3, Q8TBB1, sequence (Q8TBB1 500-596): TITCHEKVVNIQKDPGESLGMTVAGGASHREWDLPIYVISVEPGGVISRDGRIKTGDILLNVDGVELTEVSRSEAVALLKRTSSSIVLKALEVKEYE

[12] = biological target: T5, LIN7B, Q9HAP6
T5 sequence (Q9HAP6 88-185, limits assumed, looked up): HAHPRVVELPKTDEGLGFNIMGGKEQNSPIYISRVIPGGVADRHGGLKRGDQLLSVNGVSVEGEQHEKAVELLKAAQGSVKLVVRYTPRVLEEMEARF

[13] = biological target: T6, ARHGAP21, Q5T5U3
T6 sequence (Q5T5U3 45-169, limits assumed, looked up): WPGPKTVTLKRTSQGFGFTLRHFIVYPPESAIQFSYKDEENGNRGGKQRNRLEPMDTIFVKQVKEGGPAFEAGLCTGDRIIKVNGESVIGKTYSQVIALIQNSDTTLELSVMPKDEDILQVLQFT

[14] = biological target: MAST2, Q6P0Q8
MAST2, Q6P0Q8, sequence (Q6P0Q8 1099-1202): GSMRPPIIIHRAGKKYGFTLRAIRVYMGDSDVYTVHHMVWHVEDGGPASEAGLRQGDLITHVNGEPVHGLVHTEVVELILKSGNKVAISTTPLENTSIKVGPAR

[15] = biological target: T7, FRMPD1, Q5SYB0
T7 sequence (Q5SYB0 52-145, limits assumed, looked up): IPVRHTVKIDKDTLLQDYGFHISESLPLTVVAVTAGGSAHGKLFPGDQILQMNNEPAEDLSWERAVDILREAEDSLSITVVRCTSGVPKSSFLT

[16] = biological target: AHNAK1, Q09666
AHNAK1, Q09666, sequence (Q09666 4-100): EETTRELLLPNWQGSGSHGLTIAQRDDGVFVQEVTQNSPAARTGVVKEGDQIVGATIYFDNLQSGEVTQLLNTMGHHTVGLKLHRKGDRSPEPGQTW

[17] = biological target: T8, HTRA4, P83105
T8 sequence (P83105 378-476, limits assumed, looked up): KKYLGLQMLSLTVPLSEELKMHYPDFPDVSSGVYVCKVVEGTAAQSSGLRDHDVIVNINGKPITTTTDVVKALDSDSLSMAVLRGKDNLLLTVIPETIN

[18] = biological target: MAGI2_5, Q86UL8
MAGI2_5, Q86UL8, sequence (Q86UL8 915-1017): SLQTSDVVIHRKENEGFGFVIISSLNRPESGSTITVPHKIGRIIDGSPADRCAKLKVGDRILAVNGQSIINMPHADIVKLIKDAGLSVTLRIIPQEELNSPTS

[19] = biological target: FRMPD2_1, Q68DX3
FRMPD2_1, Q68DX3, sequence (Q68DX3 770-861): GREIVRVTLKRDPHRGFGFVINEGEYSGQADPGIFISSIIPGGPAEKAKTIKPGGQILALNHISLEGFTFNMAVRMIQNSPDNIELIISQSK

[20] = biological target: Inadl_3, Q8NI35
Inadl_3, Q8NI35, sequence (Q8NI35 359-469): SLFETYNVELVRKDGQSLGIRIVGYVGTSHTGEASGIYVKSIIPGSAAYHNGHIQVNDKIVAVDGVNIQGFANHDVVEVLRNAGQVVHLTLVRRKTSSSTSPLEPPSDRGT

[21] = biological target: T9, LIN7C, Q9NUP9
T9 sequence (Q9NUP9 88-185, limits assumed, looked up): T5 sequence (Q9HAP6 88-185, limits assumed, looked up) with A2S, D13E, V35I, V40I, Q65H, S79K, R89K, A96S

[22] = biological target: Inadl_6, Q8NI35
Inadl_6, Q8NI35, sequence (Q8NI35 1058-1167): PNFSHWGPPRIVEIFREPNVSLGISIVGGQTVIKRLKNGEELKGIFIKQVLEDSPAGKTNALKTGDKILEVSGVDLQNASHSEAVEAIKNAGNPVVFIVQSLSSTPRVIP

[23] = biological target: T10, MPP2, Q14168
T10 sequence (Q14168 180-250, limits assumed, looked up): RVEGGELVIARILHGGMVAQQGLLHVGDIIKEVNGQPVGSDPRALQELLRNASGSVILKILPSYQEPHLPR

[24] = biological target: T11, PDZD7_3, Q9H5P4
T11 sequence (Q9H5P4 857-944, limits assumed, looked up): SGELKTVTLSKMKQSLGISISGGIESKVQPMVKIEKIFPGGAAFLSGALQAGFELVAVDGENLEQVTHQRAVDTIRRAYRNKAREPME

[25] = biological target: Inadl_1, Q8NI35
Inadl_1, Q8NI35, sequence (Q8NI35 113-229): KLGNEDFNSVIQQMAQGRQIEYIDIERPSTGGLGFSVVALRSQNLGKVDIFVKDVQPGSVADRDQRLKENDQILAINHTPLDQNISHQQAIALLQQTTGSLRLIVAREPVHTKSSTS

[26] = biological target: Inadl_9, Q8NI35
Inadl_9, Q8NI35, sequence (Q8NI35 1530-1615): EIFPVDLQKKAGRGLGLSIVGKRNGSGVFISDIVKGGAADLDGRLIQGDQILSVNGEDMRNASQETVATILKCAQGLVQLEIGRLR

[27] = biological target: FRMPD2_2, Q68DX3
FRMPD2_2, Q68DX3, sequence (Q68DX3 944-1038): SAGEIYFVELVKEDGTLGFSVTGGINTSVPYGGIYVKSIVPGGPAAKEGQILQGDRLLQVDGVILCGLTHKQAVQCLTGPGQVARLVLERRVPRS

B1: LPAR1, Q92633 (peptide)
chain: GVHSNDHSVV
For B1, the pKd [1] was 3.76, the pKd [2] was “below the threshold” and the pKd [3] was “below the threshold”. The pKd [4] was “below the threshold”, the pKd [5] was “below the threshold” and the pKd [6] was “below the threshold”. For the same binder, the pKd [7] was 3.62, the pKd [8] was 4.01 and the pKd [9] was “below the threshold”. For the same binder, the pKd [10] was 4.99, the pKd [11] was “below the threshold” and the pKd [12] was 3.64. The pKd [13] was “below the threshold”, the pKd [14] was 4.12 and the pKd [15] was “below the threshold”. For the same binder, the pKd [16] was “below the threshold”, the pKd [17] was “below the threshold” and the pKd [18] was “below the threshold”. For the same binder, the pKd [19] was “below the threshold”, the pKd [20] was “below the threshold” and the pKd [21] was “below the threshold”. The pKd [22] was “below the threshold”, the pKd [23] was “below the threshold” and the pKd [24] was 3.68. The pKd [25] was “below the threshold”, the pKd [26] was “below the threshold” and the pKd [27] was “below the threshold”.

B2: SLC17A1, Q14916 (peptide)
chain: WAKEKQHTRL
In the case of B2, the pKd [1] is reported as “below the threshold”, the pKd [2] is reported as 4.07 and the pKd [3] is reported as “below the threshold”. The pKd [4] was “below the threshold”, the pKd [5] was “below the threshold” and the pKd [6] was “below the threshold”. The pKd [7] was “below the threshold”, the pKd [8] was 4.04 and the pKd [9] was “below the threshold”. For the same binder, the pKd [10] was “below the threshold”, the pKd [11] was “below the threshold” and the pKd [12] was “below the threshold”. For the same binder, the pKd [13] was 3.81, the pKd [14] was 5.45 and the pKd [15] was “below the threshold”. The pKd [16] was “below the threshold”, the pKd [17] was “below the threshold” and the pKd [18] was “below the threshold”. The pKd [19] was “below the threshold”, the pKd [20] was “below the threshold” and the pKd [21] was “below the threshold”. The pKd [22] was “below the threshold”, the pKd [23] was “below the threshold” and the pKd [24] was 4.87. For the same binder, the pKd [25] was “below the threshold”, the pKd [26] was “below the threshold” and the pKd [27] was “below the threshold”.

B3: KCNA6, P17658 (peptide)
chain: YAEKRMLTEV
B3 was tested, and the pKd [1] was “below the threshold”, the pKd [2] was “below the threshold” and the pKd [3] was “below the threshold”. The pKd [4] was “below the threshold”, the pKd [5] was “below the threshold” and the pKd [6] was “below the threshold”. The pKd [7] was “below the threshold”, the pKd [8] was 4.23 and the pKd [9] was “below the threshold”. The pKd [10] was 4.34, the pKd [11] was “below the threshold” and the pKd [12] was 3.65. For the same binder, the pKd [13] was “below the threshold”, the pKd [14] was 5.6 and the pKd [15] was “below the threshold”. For the same binder, the pKd [16] was “below the threshold”, the pKd [17] was 4.38 and the pKd [18] was 4.28. For the same binder, the pKd [19] was “below the threshold”, the pKd [20] was “below the threshold” and the pKd [21] was 3.52. The pKd [22] was “below the threshold”, the pKd [23] was “below the threshold” and the pKd [24] was 4.95. The pKd [25] was “below the threshold”, the pKd [26] was “below the threshold” and the pKd [27] was “below the threshold”.

B4: CSPG4, Q6UVK1 (peptide)
chain: PALKNGQYWV
B4 was tested, and the pKd [1] was “below the threshold”, the pKd [2] was 3.5 and the pKd [3] was “below the threshold”. For the same binder, the pKd [4] was “below the threshold”, the pKd [5] was “below the threshold” and the pKd [6] was 4.05. For the same binder, the pKd [7] was 3.5, the pKd [8] was “below the threshold” and the pKd [9] was “below the threshold”. The pKd [10] was 5.45, the pKd [11] was “below the threshold” and the pKd [12] was “below the threshold”. The pKd [13] was “below the threshold”, the pKd [14] was 4.07 and the pKd [15] was “below the threshold”. For the same binder, the pKd [16] was “below the threshold”, the pKd [17] was 4.14 and the pKd [18] was “below the threshold”. For the same binder, the pKd [19] was 3.82, the pKd [20] was 3.58 and the pKd [21] was 4.15. The pKd [22] was “below the threshold”, the pKd [23] was “below the threshold” and the pKd [24] was “below the threshold”. For the same binder, the pKd [25] was 4.09, the pKd [26] was 4.16 and the pKd [27] was “below the threshold”.

B5: DFNB31, Q9P202 (peptide)
chain: FLVTEFNVML
B5 was tested, and the pKd [1] was “below the threshold”, the pKd [2] was 3.9 and the pKd [3] was “below the threshold”. For the same binder, the pKd [4] was “below the threshold”, the pKd [5] was “below the threshold” and the pKd [6] was 4.84. For the same binder, the pKd [7] was “below the threshold”, the pKd [8] was “below the threshold” and the pKd [9] was “below the threshold”. For the same binder, the pKd [10] was 3.63, the pKd [11] was “below the threshold” and the pKd [12] was “below the threshold”. For the same binder, the pKd [13] was 4.61, the pKd [14] was 5.15 and the pKd [15] was “below the threshold”. The pKd [16] was “below the threshold”, the pKd [17] was “below the threshold” and the pKd [18] was “below the threshold”. The pKd [19] was “below the threshold”, the pKd [20] was 4.73 and the pKd [21] was “below the threshold”. For the same binder, the pKd [22] was “below the threshold”, the pKd [23] was “below the threshold” and the pKd [24] was 4.47. For the same binder, the pKd [25] was “below the threshold”, the pKd [26] was “below the threshold” and the pKd [27] was “below the threshold”.
